Test results published in article PMC6365968 (Cell, 2018).

T1: human LAG3-Ig (immunoglobulin Fc-tagged LAG3 extracellular domain fusion protein) (human, UniProt P18627 23-450)
T1 sequence (looked up): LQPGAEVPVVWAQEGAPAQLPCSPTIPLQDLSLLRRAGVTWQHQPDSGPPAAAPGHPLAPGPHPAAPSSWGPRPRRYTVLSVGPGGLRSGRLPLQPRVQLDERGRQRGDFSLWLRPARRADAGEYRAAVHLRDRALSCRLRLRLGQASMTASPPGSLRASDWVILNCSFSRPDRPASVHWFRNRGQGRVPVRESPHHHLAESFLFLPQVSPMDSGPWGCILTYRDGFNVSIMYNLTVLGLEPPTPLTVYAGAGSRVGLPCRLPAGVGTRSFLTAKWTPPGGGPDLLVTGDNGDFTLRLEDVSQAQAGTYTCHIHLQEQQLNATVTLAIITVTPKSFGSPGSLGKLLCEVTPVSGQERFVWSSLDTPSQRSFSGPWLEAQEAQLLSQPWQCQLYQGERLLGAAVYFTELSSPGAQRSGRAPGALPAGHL

T2: mouse LAG3-Ig (Fc-tagged mouse LAG3 extracellular domain fusion protein) (mouse, UniProt Q61790 24-442)
T2 sequence (looked up): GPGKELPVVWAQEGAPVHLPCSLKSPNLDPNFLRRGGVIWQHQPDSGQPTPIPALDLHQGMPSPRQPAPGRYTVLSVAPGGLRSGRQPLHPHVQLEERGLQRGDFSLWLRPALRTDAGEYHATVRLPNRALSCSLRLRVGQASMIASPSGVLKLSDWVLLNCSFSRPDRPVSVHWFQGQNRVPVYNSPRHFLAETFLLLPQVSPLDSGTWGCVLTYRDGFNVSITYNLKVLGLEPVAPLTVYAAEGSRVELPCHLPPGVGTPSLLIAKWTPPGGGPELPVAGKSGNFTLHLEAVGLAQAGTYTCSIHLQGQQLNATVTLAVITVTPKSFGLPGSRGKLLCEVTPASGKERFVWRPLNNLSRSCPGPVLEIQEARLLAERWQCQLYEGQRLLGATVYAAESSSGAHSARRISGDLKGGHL


How the values were obtained:
[1] = biological target: T1, human LAG3-Ig (immunoglobulin Fc-tagged …); test: BLI
[2] = biological target: T2, mouse LAG3-Ig (Fc-tagged mouse LAG3 …); test: BLI
SEC-MALS = biological target: the molecule itself; test: SEC-MALS

binding result [1] | Kd [2] [nM] | Binder | stoichiometry N (SEC-MALS)
binds |  | FLAG-tagged human FGL1 (ligand, UniProt Q08830 23-312, looked up) LEDCAQEQMRLRAQVRLLETRVKQQQVKIKQLLQENEVQFLDKGDENTVIDLGSKRQYADCSEIFNDGYKLSGFYKIKPLQSPAEFSVYCDMSDGGGWTVIQRRSDGSENFNRGWKDYENGFGNFVQKHGEYWLGNKNLHFLTTQEDYTLKIDLADFEKNSRYAQYKNFKVGDEKNFYELNIGEYSGTAGDSLAGNFHPEVQWWASHQRMKFSTWDRDHDNYEGNCAEEDQSGWWFNRCHSANLNGVYYSGPYTAKTDNGIVWYTWHGWWYSLKSVVMKIRPNDFIPNVI | 
 | ~1.5 | FLAG-tagged mouse FGL1 (ligand, UniProt Q71KU9 23-314, looked up) LESESCLREQVRLRAQVHQLETRVKQQQTMIAQLLHEKEVQFLDKGSENSFIDLGGKRQYADCSEIYNDGFKQSGFYKIKPLQSLAEFSVYCDMSDGGGWTVIQRRSDGSENFNRGWNDYENGFGNFVQNNGEYWLGNKNINLLTIQGDYTLKIDLTDFEKNSSFAQYQSFKVGDKKSFYELNIGEYSGTAGDSLSGTFHPEVQWWASHQRMKFSTWDRDNDNYQGNCAEEEQSGWWFNRCHSANLNGVYYRGSYRAETDNGVVWYTWHGWWYSLKSVVMKIRPSDFIPNII | 2
